This note sets out measurements from article PMC1635298.

Common to all, as to assay: EMSA
Background: Mobility shift assays separate free from complexed probe on a gel.

The target in data set [1] is T1, Slx5-Slx8 complex, Slx8 subunit;Slx5 (Saccharomyces cerevisiae;Saccharomyces …, UniProt P40072;P32828 1-274;1-619, |).
T1 sequence 1: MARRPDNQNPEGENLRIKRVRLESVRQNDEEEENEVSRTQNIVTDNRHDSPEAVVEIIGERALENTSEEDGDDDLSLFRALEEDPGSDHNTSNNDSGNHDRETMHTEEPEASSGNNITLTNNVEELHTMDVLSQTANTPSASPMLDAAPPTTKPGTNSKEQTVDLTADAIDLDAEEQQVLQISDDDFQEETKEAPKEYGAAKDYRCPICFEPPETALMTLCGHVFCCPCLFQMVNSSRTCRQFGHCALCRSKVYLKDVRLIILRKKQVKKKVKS
T1 sequence 2: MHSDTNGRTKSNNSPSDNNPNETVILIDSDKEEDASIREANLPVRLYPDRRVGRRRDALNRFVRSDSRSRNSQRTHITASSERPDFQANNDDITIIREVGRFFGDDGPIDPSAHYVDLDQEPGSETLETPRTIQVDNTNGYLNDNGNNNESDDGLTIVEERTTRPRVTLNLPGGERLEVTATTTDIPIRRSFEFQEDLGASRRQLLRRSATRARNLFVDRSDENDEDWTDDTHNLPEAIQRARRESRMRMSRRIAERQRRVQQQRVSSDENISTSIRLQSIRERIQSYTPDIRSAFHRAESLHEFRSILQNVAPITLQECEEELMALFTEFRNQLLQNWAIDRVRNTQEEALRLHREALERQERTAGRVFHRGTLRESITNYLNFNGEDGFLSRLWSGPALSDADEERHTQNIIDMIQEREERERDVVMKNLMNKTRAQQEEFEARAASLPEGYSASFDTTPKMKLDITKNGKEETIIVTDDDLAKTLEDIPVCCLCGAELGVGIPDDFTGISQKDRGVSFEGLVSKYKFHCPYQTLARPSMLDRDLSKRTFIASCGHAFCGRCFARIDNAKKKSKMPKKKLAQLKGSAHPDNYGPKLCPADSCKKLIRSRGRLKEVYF

A further data set addresses T2, Slx8 (Saccharomyces cerevisiae, UniProt P40072 1-274).
T2 sequence: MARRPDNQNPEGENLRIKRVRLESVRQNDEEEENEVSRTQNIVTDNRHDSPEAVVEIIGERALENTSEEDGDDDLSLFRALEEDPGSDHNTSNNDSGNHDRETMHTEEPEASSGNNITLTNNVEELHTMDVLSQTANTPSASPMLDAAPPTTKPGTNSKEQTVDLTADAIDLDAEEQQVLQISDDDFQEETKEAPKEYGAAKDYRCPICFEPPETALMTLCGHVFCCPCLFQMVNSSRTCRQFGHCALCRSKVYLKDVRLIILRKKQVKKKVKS

In data set [2] the target is T1, Slx5-Slx8 complex, Slx8 subunit;Slx5. The source holds these as a separate data set.
In a further data set the target is T3, Slx5 (Saccharomyces cerevisiae, UniProt P32828 1-619).
T3 sequence: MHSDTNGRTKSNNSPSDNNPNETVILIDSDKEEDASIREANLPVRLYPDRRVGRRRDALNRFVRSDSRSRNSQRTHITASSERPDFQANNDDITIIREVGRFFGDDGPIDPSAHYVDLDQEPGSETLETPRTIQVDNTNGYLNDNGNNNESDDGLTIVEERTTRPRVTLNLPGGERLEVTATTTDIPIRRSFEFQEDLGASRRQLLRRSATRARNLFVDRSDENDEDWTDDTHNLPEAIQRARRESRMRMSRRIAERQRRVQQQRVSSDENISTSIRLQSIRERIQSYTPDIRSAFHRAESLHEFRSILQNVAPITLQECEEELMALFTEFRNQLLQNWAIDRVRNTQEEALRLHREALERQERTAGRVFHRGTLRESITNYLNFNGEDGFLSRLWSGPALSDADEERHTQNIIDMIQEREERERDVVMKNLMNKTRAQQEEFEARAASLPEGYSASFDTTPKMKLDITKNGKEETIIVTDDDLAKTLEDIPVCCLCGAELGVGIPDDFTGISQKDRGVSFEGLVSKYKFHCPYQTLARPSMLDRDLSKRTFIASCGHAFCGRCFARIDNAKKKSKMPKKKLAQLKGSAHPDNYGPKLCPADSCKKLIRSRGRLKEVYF

Data set [3] concerns the target T1, Slx5-Slx8 complex, Slx8 subunit;Slx5. This is another data set of the same source.
For data set [4] the target is unchanged. This is another data set of the same source.
For data set [5] the target is unchanged. This is another data set of the same source.

Where two headings read alike, the source gives them in different places.

B1: 15 bp dsDNA (1312/1320) (dsDNA)
DNA 1: TATCTCCTAACGCCA
DNA 2: TGGCGTTAGGAGATA
Turning to B1, the binding result in data set [1] is on record as “no binding”.

B2: 45 bp dsDNA (1315/1316) (dsDNA)
DNA 1: GGGTCAACGTGGGCAAAGATGTCCTAGCAAGCCAGAATTCGGCAG
DNA 2: CTGCCGAATTCTGGCTTGCTAGGACATCTTTGCCCACGTTGACCC
Regarding B2, the “apparent K (half saturation)” value in the data set with Slx8 is ~8 pmol (in reaction; standard volume 20 uL); in data set [2], < 0.5 pmol (in reaction; standard volume 20 uL). In addition, the binding result in the data set with Slx5 was “no binding”.

B3: 30 bp dsDNA (1313/1314) (dsDNA)
DNA 1: TGGCGTTAGGAGATACCGATAAGCTTCGGC
DNA 2: GCCGAAGCTTATCGGTATCTCCTAACGCCA
B3: the binding result in data set [3] is “binds”. For the molecule GACGCTGCCGAATTCTGGCGTTAGGAGATACCGATAAGCTTCGGCTTAA (ssDNA) [49 nt ssDNA (888)], the binding result in data set [4] was “no binding”.

B4: 90 bp dsDNA (1317/1319) (dsDNA)
DNA 1: GATCCGAATTCTGGCTTGCTAGGACATCTTTGCCCACGTTGACCCGGGTTGGCGTTAGGAGATAGTCAGTTATAGCTGCGGCTGCTAAGG
DNA 2: GATCCCTTAGCAGCCGCAGCTATAACTGACTATCTCCTAACGCCAACCCGGGTCAACGTGGGCAAAGATGTCCTAGCAAGCCAGAATTCG
As for B4, the binding result in data set [5] is reported as “binds”.
